Test results reported in patent publication US20240239881A1 (Innovent, published 2024).

Tests used:
[1] = target: T1, Rhesus ANG2 (rhesus, UniProt F6QXG0 19-496); assay: SPR, Biacore T200, antibody captured on Protein G chip, experiment 1
T1 sequence: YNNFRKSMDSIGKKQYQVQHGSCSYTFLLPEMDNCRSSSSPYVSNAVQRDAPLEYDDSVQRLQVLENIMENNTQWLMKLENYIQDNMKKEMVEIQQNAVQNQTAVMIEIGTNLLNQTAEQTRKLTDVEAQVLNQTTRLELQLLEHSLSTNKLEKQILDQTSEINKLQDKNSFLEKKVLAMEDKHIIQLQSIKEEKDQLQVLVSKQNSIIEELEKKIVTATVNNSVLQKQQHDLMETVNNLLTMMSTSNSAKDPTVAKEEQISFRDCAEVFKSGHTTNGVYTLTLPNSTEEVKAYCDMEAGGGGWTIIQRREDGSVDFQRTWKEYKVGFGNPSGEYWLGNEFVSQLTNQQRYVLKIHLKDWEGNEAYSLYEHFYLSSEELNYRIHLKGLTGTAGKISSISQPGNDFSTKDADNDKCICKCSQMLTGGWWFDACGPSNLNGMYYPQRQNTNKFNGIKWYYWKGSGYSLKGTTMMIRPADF
Method: (§1) The antibody was diluted to 1 μg/mL and was captured onto channel 2 for 30 s, and channel 1 was the blank control channel. The gradient-diluted Human ANG2, Rhesus ANG2, Rabbit ANG2, Rat ANG2 and Mouse ANG2 were sequentially injected into channels 1 and 2 of the chip, from low to high concentrations (0-32 nM), at a flow rate of 30 μL/min, with one concentration per cycle, and with 180 s association time and 1200 s dissociation time at 25° C. Finally, the chip was regenerated using Glycine pH 1.5 at 30 μL/min for 30 s. The affinity assay was repeated three times.

[2] = target: T2, human Ang2 (human, UniProt O15123 19-496, limits assumed); assay: as above
T2 construct: also called hAng2; h Ang2
T2 sequence: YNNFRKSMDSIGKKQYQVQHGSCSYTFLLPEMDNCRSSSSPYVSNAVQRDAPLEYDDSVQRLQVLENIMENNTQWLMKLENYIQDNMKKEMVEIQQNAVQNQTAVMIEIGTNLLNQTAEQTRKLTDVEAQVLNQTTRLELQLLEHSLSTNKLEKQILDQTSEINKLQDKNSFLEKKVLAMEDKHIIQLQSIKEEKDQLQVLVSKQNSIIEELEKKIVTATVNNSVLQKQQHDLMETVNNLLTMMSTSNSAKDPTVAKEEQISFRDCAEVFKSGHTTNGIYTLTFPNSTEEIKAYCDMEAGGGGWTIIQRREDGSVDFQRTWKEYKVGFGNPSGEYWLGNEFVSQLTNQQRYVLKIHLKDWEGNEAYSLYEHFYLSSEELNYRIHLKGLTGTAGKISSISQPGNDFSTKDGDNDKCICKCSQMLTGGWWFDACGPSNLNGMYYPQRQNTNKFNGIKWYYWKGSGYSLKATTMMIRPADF
Method: as §1

[3] = target: T3, Rabbit ANG2 (rabbit, UniProt G1T9B3 19-496); assay: as above
T3 sequence: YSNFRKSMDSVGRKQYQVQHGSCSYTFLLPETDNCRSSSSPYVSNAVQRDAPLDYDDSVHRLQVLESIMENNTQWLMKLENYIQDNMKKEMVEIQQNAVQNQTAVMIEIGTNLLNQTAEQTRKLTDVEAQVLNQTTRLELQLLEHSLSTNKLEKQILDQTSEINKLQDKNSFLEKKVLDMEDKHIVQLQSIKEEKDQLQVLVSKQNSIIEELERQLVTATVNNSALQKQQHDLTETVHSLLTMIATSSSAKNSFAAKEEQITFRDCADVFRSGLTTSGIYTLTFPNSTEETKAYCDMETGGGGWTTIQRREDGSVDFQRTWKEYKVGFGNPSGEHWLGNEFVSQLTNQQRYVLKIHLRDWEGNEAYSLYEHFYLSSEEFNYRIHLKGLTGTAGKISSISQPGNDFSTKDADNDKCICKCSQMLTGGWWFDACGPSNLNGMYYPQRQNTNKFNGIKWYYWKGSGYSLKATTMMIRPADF
Method: as §1

[4] = target: T4, hAng2-Fc protein (Sino Biological, Cat No.: 10691-H02H) (human, UniProt O15123 19-496); assay: blocking assay by flow cytometry: antibody titrated against hAng2-Fc (2 ug/ml final); blocked binding to human Tie2 on 293-tie2 cells; anti-human IgG-PE, MFI
T4 construct: Bought fusion; also called human Ang2-Fc; human Ang2-hFc; not shown: human Fc of the bought fusion protein
T4 sequence: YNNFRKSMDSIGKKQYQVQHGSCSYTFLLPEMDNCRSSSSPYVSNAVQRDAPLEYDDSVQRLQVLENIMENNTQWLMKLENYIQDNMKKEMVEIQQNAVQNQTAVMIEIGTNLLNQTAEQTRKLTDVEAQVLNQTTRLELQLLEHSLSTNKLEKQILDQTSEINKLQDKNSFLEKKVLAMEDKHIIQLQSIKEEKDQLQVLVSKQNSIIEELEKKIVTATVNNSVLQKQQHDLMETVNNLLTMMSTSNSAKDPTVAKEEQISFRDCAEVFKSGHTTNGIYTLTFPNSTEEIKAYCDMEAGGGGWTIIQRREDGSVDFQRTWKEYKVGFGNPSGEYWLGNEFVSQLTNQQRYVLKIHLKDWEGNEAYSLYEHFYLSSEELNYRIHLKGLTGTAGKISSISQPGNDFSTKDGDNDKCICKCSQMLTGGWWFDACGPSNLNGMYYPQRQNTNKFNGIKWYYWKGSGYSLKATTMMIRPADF
Method: The ability of hz81H10.4 and the control antibody Nesvacumab to block the binding of human Ang2-hFc to Tie2 on the cell surface was detected by flow cytometry (FACS).
The antigen hAng2-Fc protein (Sino Biological, Cat No.: 10691-H02H) was diluted to 4 μg/ml, and added to the plate wells at 50 μl/well. Antibodies (hz81H10.4 and control antibody Nesvacumab) prepared as described above were diluted at 2-fold with a total of 12 dilution points starting from the highest concentration of 800 nM, and added to the plate wells at 50 μl/well, and incubated in PBS on ice for 30 min, where the final concentration of the antigen was 2 μg/ml and the highest concentration of antibody was 400 nM. […] The cells were centrifuged at 300 g for 5 min, and after the supernatant was discarded, the cells were resuspended in the antigen-antibody mixture. The cells were incubated on ice for 30 min, and added with PBS at 100 μl/well, centrifuged at 300 g for 5 min, and washed with PBS once. A 100 μl of goat anti-human IgG-PE (Southern Biotech, Cat. No. 2040-09) diluted at 1:200 was added to each well and placed in an ice bath for 20 min. PBS was added at 100 μl/well, and the cells were centrifuged at 300 g for 5 min, and washed once with PBS. The cells were resuspended in 100 μl PBS and the fluorescence signals of the cells were detected by a flow cytometer (BD Biosciences). […]

B1: humanized antibody hz81H10.4 (antibody, human IgG1, kappa, V domains shown)
VH: EVQLVESGGGLVKPGGSLRLSCAASGFTFSNYWMNWVRQAPGKGLEWVAEIRLKSNNYATHYAESVKGRFTISRDVSKNTVYLQMNSLKTEDTAVYYCTDTAPFAYWGQGTLVTVSS
VL: DIQMTQSPSSLSASVGDRVTITCKASQDVGTDVAWYQQKPGKAPKLLIYWASTRHTGVPSRFSGSGSGTDFTLTISSLQPEDFATYYCQQYSSYPLTFGGGTKVEIKR
notes: also called IBI335
Kd [1]: 0.183 nM | koff [1]: 4.87e-05 s⁻¹ | kon [1]: 266000 M⁻¹ s⁻¹ | Kd [2]: 0.0694 nM | koff [2]: 1.74e-05 s⁻¹ | kon [2]: 250000 M⁻¹ s⁻¹ | Kd [3]: 0.518 nM | koff [3]: 0.000153 s⁻¹ | kon [3]: 294000 M⁻¹ s⁻¹ | IC50 [4]: 2.3 nM
